# Experiments:
# Test in all cases: anti-TOX IP from EL4 nuclear extract, LC-MS/MS, MiST
# Afg3l1 = Afg3l1 (UniProt Q920A7)
# Ash2l = Ash2l (UniProt Q91X20)
# Cd2ap = Cd2ap (UniProt Q9JLQ0)
# Cdk9 = Cdk9 (UniProt Q99J95)
# Dhx30 = Dhx30 (UniProt Q99PU8)
# Dido1 = Dido1 (UniProt Q8C9B9)
# Eif4g2 = Eif4g2 (UniProt Q62448)
# Eif4h = Eif4h (UniProt Q9WUK2)
# Eif5b = Eif5b (UniProt Q05D44)
# Hs2st1 = Hs2st1 (UniProt Q8R3H7)
# Larp7 = Larp7 (UniProt Q05CL8)
# Mars = Mars (UniProt Q68FL6)
# Metap2 = Metap2 (UniProt O08663)
# Ogdh = Ogdh (UniProt Q60597)
# Pdlim1 = Pdlim1 (UniProt O70400)
# Pml = Pml (UniProt Q60953)
# Rif1 = Rif1 (UniProt Q6PR54)
# Rpl36a = Rpl36a (UniProt P83882)
# Snrpb2 = Snrpb2 (UniProt Q9CQI7)
# Snx9 = Snx9 (UniProt Q91VH2)
# Taf6 = Taf6 (UniProt Q62311)
# Tagln2 = Tagln2 (UniProt Q9WVA4)
# Trip12 = Trip12 (UniProt G5E870)
# Tsr1 = Tsr1 (UniProt Q5SWD9)
# Wdhd1 = Wdhd1 (UniProt P59328)
# Dhx30, sequence (Q99PU8 whole entry): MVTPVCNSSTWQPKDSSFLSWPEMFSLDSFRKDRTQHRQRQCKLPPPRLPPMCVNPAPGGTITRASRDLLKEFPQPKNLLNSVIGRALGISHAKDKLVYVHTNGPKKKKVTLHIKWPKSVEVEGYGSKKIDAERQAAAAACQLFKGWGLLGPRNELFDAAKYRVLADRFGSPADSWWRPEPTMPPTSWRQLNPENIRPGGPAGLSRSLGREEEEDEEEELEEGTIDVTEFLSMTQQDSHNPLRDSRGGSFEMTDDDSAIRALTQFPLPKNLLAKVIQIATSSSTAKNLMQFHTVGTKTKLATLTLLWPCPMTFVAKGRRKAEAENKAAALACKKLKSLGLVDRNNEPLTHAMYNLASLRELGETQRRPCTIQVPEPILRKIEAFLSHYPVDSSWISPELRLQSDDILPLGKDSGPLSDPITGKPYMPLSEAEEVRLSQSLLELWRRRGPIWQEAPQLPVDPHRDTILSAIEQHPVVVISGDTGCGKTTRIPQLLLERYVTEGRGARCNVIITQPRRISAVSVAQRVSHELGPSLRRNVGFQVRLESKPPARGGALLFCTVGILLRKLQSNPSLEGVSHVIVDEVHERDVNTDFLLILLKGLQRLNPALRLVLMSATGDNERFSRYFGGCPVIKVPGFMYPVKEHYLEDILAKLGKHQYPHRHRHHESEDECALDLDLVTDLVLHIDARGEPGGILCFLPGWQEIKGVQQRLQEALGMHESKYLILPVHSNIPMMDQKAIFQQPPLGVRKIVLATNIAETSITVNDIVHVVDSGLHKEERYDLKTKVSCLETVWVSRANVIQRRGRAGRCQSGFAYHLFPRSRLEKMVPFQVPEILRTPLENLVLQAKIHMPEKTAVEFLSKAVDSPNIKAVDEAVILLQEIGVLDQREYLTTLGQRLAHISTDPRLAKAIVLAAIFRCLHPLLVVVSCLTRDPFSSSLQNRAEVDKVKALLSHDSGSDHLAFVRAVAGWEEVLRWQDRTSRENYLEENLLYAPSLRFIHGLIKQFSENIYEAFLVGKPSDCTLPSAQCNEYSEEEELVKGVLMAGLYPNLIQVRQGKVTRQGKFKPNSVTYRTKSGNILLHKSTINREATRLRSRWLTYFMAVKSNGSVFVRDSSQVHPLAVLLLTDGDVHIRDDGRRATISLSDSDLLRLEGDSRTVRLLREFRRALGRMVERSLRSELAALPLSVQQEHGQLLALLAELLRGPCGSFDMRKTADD
# Rif1, sequence (Q6PR54 whole entry): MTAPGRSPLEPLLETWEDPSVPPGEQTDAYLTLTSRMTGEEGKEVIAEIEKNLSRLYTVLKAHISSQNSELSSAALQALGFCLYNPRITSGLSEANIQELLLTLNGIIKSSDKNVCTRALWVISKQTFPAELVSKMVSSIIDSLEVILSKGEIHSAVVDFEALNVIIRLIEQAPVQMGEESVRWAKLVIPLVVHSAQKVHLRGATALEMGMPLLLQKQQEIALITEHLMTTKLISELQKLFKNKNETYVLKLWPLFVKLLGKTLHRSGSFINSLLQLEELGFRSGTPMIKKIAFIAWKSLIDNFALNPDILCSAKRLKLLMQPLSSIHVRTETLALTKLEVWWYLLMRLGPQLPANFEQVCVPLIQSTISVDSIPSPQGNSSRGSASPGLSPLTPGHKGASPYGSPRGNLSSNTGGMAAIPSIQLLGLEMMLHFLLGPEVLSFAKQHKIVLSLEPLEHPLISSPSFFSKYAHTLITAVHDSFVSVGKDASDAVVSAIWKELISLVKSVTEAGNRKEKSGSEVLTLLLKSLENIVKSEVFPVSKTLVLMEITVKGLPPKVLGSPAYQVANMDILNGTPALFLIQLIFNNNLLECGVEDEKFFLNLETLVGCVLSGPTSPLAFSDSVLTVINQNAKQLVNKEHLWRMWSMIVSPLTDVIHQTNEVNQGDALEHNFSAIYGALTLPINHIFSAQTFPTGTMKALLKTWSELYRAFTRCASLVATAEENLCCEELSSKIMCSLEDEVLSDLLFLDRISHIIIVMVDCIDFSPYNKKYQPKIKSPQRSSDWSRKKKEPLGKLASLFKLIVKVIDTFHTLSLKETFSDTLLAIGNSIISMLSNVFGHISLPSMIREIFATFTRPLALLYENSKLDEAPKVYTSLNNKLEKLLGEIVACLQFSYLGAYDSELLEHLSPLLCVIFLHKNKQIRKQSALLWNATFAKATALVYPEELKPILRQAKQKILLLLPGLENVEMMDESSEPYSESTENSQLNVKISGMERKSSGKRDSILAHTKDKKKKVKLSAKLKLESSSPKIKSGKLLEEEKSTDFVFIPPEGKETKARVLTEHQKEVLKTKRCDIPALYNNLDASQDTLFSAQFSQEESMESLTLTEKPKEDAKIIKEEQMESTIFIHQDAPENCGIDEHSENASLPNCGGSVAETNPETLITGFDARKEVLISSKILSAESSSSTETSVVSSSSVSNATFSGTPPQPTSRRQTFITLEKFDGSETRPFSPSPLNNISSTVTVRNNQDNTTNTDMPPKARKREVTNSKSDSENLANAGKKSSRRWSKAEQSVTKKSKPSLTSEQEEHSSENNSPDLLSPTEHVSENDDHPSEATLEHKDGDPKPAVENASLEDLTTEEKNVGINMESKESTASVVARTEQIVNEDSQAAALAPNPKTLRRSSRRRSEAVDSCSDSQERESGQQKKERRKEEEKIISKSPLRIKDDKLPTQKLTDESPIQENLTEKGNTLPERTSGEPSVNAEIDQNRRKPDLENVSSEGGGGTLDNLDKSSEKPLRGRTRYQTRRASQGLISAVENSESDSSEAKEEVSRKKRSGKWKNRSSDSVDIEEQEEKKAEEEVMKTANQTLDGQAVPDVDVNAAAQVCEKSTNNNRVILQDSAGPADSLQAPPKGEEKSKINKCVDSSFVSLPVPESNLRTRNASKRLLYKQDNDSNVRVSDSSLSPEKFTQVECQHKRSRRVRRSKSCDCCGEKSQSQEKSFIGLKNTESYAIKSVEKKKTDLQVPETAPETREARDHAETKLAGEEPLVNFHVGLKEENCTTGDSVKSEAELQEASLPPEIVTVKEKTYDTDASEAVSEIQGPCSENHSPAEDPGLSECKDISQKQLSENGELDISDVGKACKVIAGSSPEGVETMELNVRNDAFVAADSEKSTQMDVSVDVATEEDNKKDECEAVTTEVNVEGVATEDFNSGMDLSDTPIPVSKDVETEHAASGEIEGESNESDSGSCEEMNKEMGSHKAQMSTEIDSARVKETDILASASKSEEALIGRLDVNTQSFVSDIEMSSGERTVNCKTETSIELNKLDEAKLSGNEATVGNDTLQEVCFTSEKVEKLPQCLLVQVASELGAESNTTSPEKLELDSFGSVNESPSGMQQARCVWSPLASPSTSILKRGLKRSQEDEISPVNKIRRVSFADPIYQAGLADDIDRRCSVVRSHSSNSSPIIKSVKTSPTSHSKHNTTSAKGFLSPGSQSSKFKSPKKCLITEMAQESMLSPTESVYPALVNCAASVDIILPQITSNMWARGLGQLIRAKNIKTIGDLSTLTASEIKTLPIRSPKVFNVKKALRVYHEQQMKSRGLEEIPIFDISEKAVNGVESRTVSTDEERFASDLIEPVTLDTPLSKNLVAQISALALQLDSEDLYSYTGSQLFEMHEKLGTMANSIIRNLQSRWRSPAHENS
# Snrpb2, sequence (Q9CQI7 whole entry): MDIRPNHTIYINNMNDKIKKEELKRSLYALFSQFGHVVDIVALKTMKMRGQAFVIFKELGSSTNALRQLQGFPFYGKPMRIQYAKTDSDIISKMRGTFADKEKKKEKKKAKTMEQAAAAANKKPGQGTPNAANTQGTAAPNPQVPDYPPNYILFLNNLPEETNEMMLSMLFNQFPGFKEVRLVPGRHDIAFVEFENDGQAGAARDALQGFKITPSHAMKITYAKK
# Cdk9, sequence (Q99J95 whole entry): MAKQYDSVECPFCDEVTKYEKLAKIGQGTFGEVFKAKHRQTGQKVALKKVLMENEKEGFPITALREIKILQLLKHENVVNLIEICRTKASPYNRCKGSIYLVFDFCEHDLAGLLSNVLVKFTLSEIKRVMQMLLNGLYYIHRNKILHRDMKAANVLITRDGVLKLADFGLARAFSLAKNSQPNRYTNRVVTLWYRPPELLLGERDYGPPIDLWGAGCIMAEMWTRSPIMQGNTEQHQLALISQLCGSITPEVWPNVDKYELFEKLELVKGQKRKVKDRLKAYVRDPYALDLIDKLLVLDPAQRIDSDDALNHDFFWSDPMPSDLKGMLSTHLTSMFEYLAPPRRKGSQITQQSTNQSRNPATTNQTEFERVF
# Hs2st1, sequence (Q8R3H7 whole entry): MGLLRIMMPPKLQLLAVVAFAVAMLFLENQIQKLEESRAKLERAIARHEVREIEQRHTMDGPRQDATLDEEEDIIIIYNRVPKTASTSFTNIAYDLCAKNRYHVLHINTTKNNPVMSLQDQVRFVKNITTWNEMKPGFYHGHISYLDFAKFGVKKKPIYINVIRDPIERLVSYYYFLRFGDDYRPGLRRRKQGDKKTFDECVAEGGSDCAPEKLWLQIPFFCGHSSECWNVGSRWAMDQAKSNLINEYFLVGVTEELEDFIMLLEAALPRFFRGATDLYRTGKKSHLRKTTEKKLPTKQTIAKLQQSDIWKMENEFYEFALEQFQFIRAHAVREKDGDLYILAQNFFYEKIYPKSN
# Eif4h, sequence (Q9WUK2 2-248 limits assumed): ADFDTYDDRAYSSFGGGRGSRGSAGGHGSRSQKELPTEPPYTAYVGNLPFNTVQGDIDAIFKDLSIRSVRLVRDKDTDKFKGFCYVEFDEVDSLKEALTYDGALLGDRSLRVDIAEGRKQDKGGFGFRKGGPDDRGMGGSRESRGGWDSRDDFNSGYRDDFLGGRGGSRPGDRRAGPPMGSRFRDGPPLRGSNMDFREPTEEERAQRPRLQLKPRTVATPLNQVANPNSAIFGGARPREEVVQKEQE
# Tagln2, sequence (Q9WVA4 2-199 limits assumed): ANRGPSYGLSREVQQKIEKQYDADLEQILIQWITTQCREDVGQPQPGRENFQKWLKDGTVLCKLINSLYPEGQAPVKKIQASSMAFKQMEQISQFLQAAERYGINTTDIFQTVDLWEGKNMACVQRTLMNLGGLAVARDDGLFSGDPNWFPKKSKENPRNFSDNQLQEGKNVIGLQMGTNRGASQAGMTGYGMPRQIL
substance,measurement,setting,value
TOX (from UniProt Q66JW3 1-526),Abundance,Afg3l1,2.15e-06
same,MiST Score,Afg3l1,0.874
same,Reproducibility,Afg3l1,0.61
same,Specificity,Afg3l1,1
same,Abundance,Ash2l,4.44e-06
same,MiST Score,Ash2l,0.879
same,Reproducibility,Ash2l,0.629
same,Specificity,Ash2l,1
same,Abundance,Cd2ap,5.85e-07
same,MiST Score,Cd2ap,0.879
same,Reproducibility,Cd2ap,0.628
same,Specificity,Cd2ap,1
same,Abundance,Cdk9,1.6e-05
same,MiST Score,Cdk9,0.865
same,Reproducibility,Cdk9,0.581
same,Specificity,Cdk9,1
same,Abundance,Dhx30,2.07e-06
same,MiST Score,Dhx30,0.89
same,Reproducibility,Dhx30,0.892
same,Specificity,Dhx30,0.897
same,Abundance,Dido1,3.41e-07
same,MiST Score,Dido1,0.878
same,Reproducibility,Dido1,0.624
same,Specificity,Dido1,1
same,Abundance,Eif4g2,4.84e-06
same,MiST Score,Eif4g2,0.866
same,Reproducibility,Eif4g2,0.887
same,Specificity,Eif4g2,0.864
same,Abundance,Eif4h,1.07e-05
same,MiST Score,Eif4h,0.869
same,Reproducibility,Eif4h,0.595
same,Specificity,Eif4h,1
same,Abundance,Eif5b,7.46e-06
same,MiST Score,Eif5b,0.878
same,Reproducibility,Eif5b,0.771
same,Specificity,Eif5b,0.933
same,Abundance,Hs2st1,6.47e-06
same,MiST Score,Hs2st1,0.879
same,Reproducibility,Hs2st1,0.628
same,Specificity,Hs2st1,1
same,Abundance,Larp7,9.12e-06
same,MiST Score,Larp7,0.859
same,Reproducibility,Larp7,0.896
same,Specificity,Larp7,0.849
same,Abundance,Mars,3.23e-07
same,MiST Score,Mars,0.877
same,Reproducibility,Mars,0.619
same,Specificity,Mars,1
same,Abundance,Metap2,1.54e-05
same,MiST Score,Metap2,0.881
same,Reproducibility,Metap2,0.927
same,Specificity,Metap2,0.868
same,Abundance,Ogdh,1.34e-05
same,MiST Score,Ogdh,0.88
same,Reproducibility,Ogdh,0.851
same,Specificity,Ogdh,0.902
same,Abundance,Pdlim1,1.21e-05
same,MiST Score,Pdlim1,0.858
same,Reproducibility,Pdlim1,0.559
same,Specificity,Pdlim1,1
same,Abundance,Pml,8.97e-06
same,MiST Score,Pml,0.858
same,Reproducibility,Pml,0.557
same,Specificity,Pml,1
same,Abundance,Rif1,1.07e-07
same,MiST Score,Rif1,0.874
same,Reproducibility,Rif1,0.611
same,Specificity,Rif1,1
same,Abundance,Rpl36a,0.000923
same,MiST Score,Rpl36a,0.895
same,Reproducibility,Rpl36a,0.679
same,Specificity,Rpl36a,1
same,Abundance,Snrpb2,7.46e-05
same,MiST Score,Snrpb2,0.858
same,Reproducibility,Snrpb2,0.558
same,Specificity,Snrpb2,1
same,Abundance,Snx9,5.29e-06
same,MiST Score,Snx9,0.877
same,Reproducibility,Snx9,0.621
same,Specificity,Snx9,1
same,Abundance,Taf6,1.15e-06
same,MiST Score,Taf6,0.864
same,Reproducibility,Taf6,0.578
same,Specificity,Taf6,1
same,Abundance,Tagln2,1.75e-05
same,MiST Score,Tagln2,0.875
same,Reproducibility,Tagln2,0.616
same,Specificity,Tagln2,1
same,Abundance,Trip12,1.4e-06
same,MiST Score,Trip12,0.866
same,Reproducibility,Trip12,0.585
same,Specificity,Trip12,1
same,Abundance,Tsr1,5.3e-06
same,MiST Score,Tsr1,0.862
same,Reproducibility,Tsr1,0.962
same,Specificity,Tsr1,0.824
same,Abundance,Wdhd1,1.64e-06
same,MiST Score,Wdhd1,0.877
same,Reproducibility,Wdhd1,0.619
same,Specificity,Wdhd1,1

# — US20210071139A1
